Source: publication PMC12775570

Assays:
[1] = molecular target: Recombinant human MET extracellular domain (Homo sapiens) (UniProt P08581); assay: high-speed atomic force microscopy
[2] = molecular target: His-tagged recombinant human EGFR extracellular domain (Homo sapiens) (UniProt P00533); assay: high-speed atomic force microscopy

Amivantamab (bispecific antibody)
percent of the observation period bound [1]: 87%
percent of the observation period with both EGFR and MET bound to amivantamab [1]: 78%
percent of the observation period with both EGFR and MET bound to amivantamab [2]: 78%
